We go through two molecules from US9540428B2, “Extracellular matrix heparin-binding domains” (EPFL-TTO, priority 2012, dated 2017).

One test addresses HGF (Homo sapiens, UniProt P14210). Briefly: ELISA binding to coated HGF. The settings on record: 50 nM cytokine coated. How it is done:
(§1) ELISA plates were coated with cytokines or BSA and further incubated with TNC III1-5 to analyze binding of TNC III1-5 to a wide variety of cytokines. […] Results are depicted in FIG. 3. Method: 50 nM of cytokine was coated for (1 hr, 37° C.). After blocking with 2% BSA (1 hr, RT). 100 nM TNC III1-5 was applied in PBST (0.05% tween, 0.1% bovine serum albumin (BSA)) (1 hr, RT). TNC III1-5 was detected with horseradish peroxidase (HRP)-anti-HIS in PBST (1 hr, RT) and developed with 3,3′,5,5′-tetramethylbenzidine (TMB), a soluble colorimetric HRP […]. Addition of sulfuric acid stop solution changes the color to yellow, enabling accurate measurement of the intensity at 450 nm using a spectrophotometer or plate reader. […] Heparin (4 μM) was added to TNC III1-5 to test the effect of blocking the heparin binding site of TNC III1-5, which has been defined as domain TNC III5 (Weber, Zimmermann, et al., 1995).
For orientation: In an ELISA, binding on a coated surface is turned into a signal by an enzyme label.

A further test deals with SMC. Briefly: Smooth muscle cell proliferation on modified TG-PEG gels with PDGF-BB. The format is cell-based. On the procedure: Method: Three different gels were fabricated, unmodified PEG, and PEG gels modified with TNC III1-5 or FN III9*-10,TNC III1-5 (5 μM). Unbound fragment was washed from the gels. Sequentially, gels were incubated for 1 hour at 37° C. with 100 μL DMEM without PDGF-BB or with PDGF-BB (1 ng per gel). For one set of gels, the media containing PDGF-BB was removed and gels were washed for 1 hour at RT. Cells were added to each gel and a proliferation assay with Alamar Blue was performed at 72 hours.

The target of the next test is T1, FGF-6 (Homo sapiens, UniProt P10767).
T1 sequence (P10767 38-208): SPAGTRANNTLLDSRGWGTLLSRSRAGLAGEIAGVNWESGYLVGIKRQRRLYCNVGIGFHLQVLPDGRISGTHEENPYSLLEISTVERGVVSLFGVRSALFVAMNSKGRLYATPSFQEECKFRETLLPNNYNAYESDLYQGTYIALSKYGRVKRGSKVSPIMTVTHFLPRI
Briefly: ELISA binding to coated FGF-6. The settings on record: 50 nM cytokine coated. On the procedure: as §1

The next test deals with T2, VEGF-C (Homo sapiens, UniProt P49767).
T2 sequence (P49767 112-419): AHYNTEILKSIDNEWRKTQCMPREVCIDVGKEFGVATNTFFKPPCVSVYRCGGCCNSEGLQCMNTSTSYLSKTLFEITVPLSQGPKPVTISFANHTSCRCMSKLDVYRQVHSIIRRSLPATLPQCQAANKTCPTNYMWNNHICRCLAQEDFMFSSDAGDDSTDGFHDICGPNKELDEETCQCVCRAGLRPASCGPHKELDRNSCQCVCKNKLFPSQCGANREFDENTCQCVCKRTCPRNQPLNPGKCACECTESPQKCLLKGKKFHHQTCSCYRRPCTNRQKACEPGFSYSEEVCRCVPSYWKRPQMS
The test can be described thus: ELISA binding to coated VEGF-C. The settings on record: 50 nM cytokine coated. How it is done:
as §1

The next test concerns the target PDGF-AA (Homo sapiens, UniProt P04085). Briefly: ELISA binding to coated PDGF-AA. The settings on record: 50 nM cytokine coated. How it is done:
as §1

In the next test the target is T3, PlGF-3 (Homo sapiens, UniProt P49763).
T3 sequence (P49763 19-221): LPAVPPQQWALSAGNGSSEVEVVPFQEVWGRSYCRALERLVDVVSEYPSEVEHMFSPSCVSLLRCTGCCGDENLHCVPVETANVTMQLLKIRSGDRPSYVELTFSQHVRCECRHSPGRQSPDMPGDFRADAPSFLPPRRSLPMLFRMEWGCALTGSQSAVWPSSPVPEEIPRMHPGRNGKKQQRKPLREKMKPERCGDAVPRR
Briefly: ELISA binding to coated PlGF-3. The settings on record: 50 nM cytokine coated. On the procedure:
as §1
(§2) ELISA plates were coated with cytokines or BSA and further incubated with Fg β15-66 to analyze binding of […] to a wide variety of cytokines. […] Results are depicted in FIG. 4. Method: The methods were analogous to those used in Example 3.

The next test concerns the target T4, BMP-2/7 (Homo sapiens, UniProt P12643+P18075).
T4 sequence (P12643 283-396): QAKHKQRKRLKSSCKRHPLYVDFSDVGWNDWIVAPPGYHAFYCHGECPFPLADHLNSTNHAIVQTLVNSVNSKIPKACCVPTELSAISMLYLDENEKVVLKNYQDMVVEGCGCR
T4 sequence (P18075 293-431): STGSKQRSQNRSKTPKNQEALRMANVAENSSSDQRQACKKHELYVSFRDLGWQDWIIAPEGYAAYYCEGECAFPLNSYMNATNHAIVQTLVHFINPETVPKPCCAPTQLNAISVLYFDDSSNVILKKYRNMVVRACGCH
The test can be described thus: ELISA binding to coated BMP-2/7. The settings on record: 50 nM cytokine coated. On the procedure:
as §1, §2

In a further test the target is T5, FGF-5 (Homo sapiens, UniProt P12034).
T5 sequence (P12034 21-268): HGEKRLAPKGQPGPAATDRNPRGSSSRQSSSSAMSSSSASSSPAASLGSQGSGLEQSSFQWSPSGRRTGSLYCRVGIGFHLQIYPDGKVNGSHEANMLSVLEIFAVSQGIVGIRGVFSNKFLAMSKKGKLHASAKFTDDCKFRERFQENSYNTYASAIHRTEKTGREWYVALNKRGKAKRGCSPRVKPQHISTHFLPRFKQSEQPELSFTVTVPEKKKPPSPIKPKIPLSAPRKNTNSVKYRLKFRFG
Briefly: ELISA binding to coated FGF-5. The conditions noted are these: 50 nM cytokine coated. On the procedure:
as §1, §2

Sequence of HGF (P14210 32-728, species assumed): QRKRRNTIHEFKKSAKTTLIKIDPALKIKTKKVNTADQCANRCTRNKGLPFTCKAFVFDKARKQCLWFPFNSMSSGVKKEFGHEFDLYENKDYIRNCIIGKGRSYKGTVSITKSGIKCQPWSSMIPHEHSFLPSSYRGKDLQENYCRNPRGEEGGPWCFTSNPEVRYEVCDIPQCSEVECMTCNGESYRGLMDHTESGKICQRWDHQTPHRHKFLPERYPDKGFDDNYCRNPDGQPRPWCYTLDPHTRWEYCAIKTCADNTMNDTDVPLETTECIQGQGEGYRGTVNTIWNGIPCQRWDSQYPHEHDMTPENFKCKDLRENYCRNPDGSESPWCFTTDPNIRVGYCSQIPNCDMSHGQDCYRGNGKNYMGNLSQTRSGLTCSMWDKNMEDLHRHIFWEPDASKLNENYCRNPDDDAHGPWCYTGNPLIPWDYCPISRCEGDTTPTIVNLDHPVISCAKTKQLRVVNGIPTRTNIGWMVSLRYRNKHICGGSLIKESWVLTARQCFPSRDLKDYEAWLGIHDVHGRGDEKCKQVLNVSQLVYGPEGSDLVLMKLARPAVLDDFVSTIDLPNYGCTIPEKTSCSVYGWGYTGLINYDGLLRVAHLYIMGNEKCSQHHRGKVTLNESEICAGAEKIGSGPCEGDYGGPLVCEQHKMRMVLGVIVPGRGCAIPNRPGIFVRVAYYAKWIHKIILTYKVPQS

B1: TNC III1-5: recombinant tenascin C fibronectin type III repeats 1-5 (E622 to A1074) with transglutaminase substrate NQEQVSPL and 6×His tag, SEQ ID NO:1 (protein)
chain: METDTLLLWVLLLWVPGSTGDAAQPAIEGRNQEQVSPLGGSEVSPPKDLVVTEVTEETVNLAWDNEMRVTEYLVVYTPTHEGGLEMQFRVPGDQTSTIIQELEPGVEYFIRVFAILENKKSIPVSARVATYLPAPEGLKFKSIKETSVEVEWDPLDIAFETWEIIFRNMNKEDEGEITKSLRRPETSYRQTGLAPGQEYEISLHIVKNNTRGPGLKRVTTTRLDAPSQIEVKDVTDTTALITWFKPLAEIDGIELTYGIKDVPGDRTTIDLTEDENQYSIGNLKPDTEYEVSLISRRGDMSSNPAKETFTTGLDAPRNLRRVSQTDNSITLEWRNGKAAIDSYRIKYAPISGGDHAEVDVPKSQQATTKTTLTGLRPGTEYGIGVSAVKEDKESNPATINAATELDTPKDLQVSETAETSLTLLWKTPLAKFDRYRLNYSLPTGQWVGVQLPRNTTSYVLRGLEPGQEYNVLLTAEKGRHKSKPARVKASTEQAGGGSHHHHHH
modifications: Tenascin III signal sequence with polyhistidine tag
As to B1, the “binding to HGF (ELISA, signal above BSA background)” value with HGF is reported as “positive binding”. Further, the “SMC proliferation on TG-PEG gels (2%)” value in the test on SMC (in the presence of PDGF-BB, 5 μM fragment, 72 hours) is given as “enhanced SMC proliferation”. In the test with SMC (unbound PDGF-BB removed, p<0.05), the “SMC proliferation on modified gels vs unmodified gels” value is given as “significantly increased proliferation”. In the test with FGF-6, the “binding to FGF-6 (ELISA, signal above BSA background)” value is on record as “positive binding”. For the same molecule, in the test with VEGF-C, the “binding to VEGF-C (ELISA, signal above BSA background)” value is reported as “positive binding”. The “binding to PDGF-AA (ELISA, signal above BSA background)” value with PDGF-AA is on record as “positive binding”.

B2: Fg β15-66: heparin-binding domain of human fibrinogen β chain aa15-66 (SEQ ID NO:8); construct with TG substrate and His tag, SEQ ID NO:2 (protein)
chain: GSNQEQVSPLGHRPLDKKREEAPSLRPAPPPISGGGYRARPAKAAATQKKVERKAPDAGGCGHHHHHH
modifications: GS linker, transglutaminase substrate, the Fg beta15-66, with a Histidine tag
Take B2: in the test with PlGF-3, the “binding to PlGF-3 (ELISA, signal above BSA background)” value is listed as “positive binding”. Besides, in the test with BMP-2/7, the “binding to BMP-2/7 (ELISA, signal above BSA background)” value was “positive binding”. Further, the “binding to FGF-5 (ELISA, signal above BSA background)” value with FGF-5 is “positive binding”.
